# Laboratory results as given in paper PMC10123100, “Single-molecule visualization of stalled replication-fork rescue by the Escherichia coli Rep helicase” (Nucleic Acids Research, 2023).
# Assays:
# [1] = target: dCas9 D10A;H840A (UniProt Q99ZW2); assay: single-molecule TIRF; conditions: 3'-biotin on strand 2, SPR: 25 mM Tris-HCl pH 7.6, 50 mM NaCl, 5 mM MgCl2, 0.25 mM DTT, 0.2 mM EDTA, 0.005% P20, 20 C, single-molecule: 25 mM Tris-HCl pH 7.9, 10 mM Mg acetate
# [2] = target: DnaB helicase (Escherichia coli) (UniProt P0ACB0)
# Sequence of DnaB helicase (Escherichia coli) (P0ACB0 whole entry): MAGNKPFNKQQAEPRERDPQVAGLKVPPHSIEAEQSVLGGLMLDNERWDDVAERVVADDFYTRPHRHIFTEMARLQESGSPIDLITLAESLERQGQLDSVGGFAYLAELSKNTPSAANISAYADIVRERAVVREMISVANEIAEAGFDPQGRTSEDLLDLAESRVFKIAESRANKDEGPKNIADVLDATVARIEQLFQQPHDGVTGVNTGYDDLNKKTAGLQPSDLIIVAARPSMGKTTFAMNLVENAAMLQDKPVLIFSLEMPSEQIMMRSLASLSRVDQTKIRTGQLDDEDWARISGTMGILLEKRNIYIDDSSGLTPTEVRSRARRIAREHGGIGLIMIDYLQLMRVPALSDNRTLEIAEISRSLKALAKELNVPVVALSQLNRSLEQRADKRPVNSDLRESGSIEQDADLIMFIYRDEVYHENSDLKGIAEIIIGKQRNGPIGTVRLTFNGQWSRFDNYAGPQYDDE
# [3] = target: DnaB helicase (Escherichia coli) (UniProt P0ACB0); remark: listed apart in the source
# [4] = target: DnaB (Escherichia coli) (UniProt P0ACB0); assay: SPR; conditions: cited from earlier work
# Sequence of DnaB (Escherichia coli) (P0ACB0 2-471): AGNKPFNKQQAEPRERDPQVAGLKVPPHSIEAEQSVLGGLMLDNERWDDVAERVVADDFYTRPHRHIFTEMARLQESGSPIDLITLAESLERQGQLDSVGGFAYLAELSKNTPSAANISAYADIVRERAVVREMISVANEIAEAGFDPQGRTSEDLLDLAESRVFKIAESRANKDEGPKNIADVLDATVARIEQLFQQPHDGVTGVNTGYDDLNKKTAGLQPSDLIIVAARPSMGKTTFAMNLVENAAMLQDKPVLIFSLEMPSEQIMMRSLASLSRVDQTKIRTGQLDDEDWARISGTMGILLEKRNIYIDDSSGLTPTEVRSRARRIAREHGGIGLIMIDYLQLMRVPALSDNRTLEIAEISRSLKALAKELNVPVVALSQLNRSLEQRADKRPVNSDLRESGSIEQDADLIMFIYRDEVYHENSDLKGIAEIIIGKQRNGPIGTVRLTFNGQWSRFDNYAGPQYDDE
# Sequence of His6-Rep WT (P09980 whole entry): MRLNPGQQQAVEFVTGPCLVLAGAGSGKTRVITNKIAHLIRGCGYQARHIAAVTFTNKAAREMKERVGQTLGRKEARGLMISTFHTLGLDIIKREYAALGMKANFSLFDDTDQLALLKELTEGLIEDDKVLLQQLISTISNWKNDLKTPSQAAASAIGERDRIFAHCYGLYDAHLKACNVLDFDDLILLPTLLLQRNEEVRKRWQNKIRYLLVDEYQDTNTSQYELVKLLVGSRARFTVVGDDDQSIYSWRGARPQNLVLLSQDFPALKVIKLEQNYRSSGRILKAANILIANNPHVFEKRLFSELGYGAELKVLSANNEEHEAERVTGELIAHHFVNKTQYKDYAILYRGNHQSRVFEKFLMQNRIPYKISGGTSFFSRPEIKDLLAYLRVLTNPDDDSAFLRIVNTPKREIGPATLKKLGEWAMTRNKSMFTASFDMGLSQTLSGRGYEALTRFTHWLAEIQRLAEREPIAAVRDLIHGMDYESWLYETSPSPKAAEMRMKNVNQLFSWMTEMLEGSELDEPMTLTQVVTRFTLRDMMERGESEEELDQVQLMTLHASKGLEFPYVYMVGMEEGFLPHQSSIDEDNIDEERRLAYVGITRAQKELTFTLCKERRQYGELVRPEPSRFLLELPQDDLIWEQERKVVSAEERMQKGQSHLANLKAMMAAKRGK
# Sequence of Rep (P09980 whole entry): as above
# Sequence of His6-Rep ΔC33 (P09980 1-640, stated change not applied): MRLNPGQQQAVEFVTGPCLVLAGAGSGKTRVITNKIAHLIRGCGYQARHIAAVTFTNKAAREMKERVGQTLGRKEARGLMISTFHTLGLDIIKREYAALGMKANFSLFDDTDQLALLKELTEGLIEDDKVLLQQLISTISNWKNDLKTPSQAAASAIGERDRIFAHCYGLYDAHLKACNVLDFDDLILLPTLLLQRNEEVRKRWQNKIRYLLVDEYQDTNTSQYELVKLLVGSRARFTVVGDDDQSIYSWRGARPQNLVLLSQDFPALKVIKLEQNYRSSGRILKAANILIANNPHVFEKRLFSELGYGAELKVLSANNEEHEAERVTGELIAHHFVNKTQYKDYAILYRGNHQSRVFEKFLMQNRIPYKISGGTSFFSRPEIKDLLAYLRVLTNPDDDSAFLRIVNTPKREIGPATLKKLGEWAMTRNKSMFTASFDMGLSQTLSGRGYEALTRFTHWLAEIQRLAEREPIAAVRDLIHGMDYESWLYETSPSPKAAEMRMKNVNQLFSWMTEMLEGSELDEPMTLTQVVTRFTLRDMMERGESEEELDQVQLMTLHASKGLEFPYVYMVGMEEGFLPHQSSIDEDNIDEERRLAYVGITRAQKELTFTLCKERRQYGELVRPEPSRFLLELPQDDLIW
Substance,binding signal (min (mean binding lifetime)) [1],also measured
CACATGCTATGAGCTGTTGCAATCTCTCGTACAATTAATAGACTGGATGGTGGATGACAAAGCTCTACACTAGATACTCACAC (double strand) [gRNA20 / 83-mer target],1,
CACATGCTATGAGCTGTTGCAATCTCTCGTACAATTAATAGACTGGATGGTGGATGACAAAGCTCTACACTAGATACTCACAC (double strand) [gRNA40 / 83-mer target],1,
CACATGCTATGAGCTGTTGCAATCTCTCGTACAATTAATAGACTGGATGGTGGATGACAAAGCTCTACACTAGATACTCACAC (double strand) [gRNA60 / 83-mer target],8.3,
CACATGCTATGAGCTGTTGCAATCTCTCGTACAATTAATAGACTGGATGGTGGATGACAAAGCTCTACACTAGATACTCACAC (double strand) [gRNA80 / 83-mer target],8.6,
His6-Rep WT (from UniProt P09980 1-673) (enzyme),,"replication efficiency in the single-molecule stalled rolling-circle replication assay (dCas9-cgRNA1-Atto647 roadblock), 20 nM Rep WT [2]: 2%; mean total DNA product length after 3 min in the single-molecule stalled rolling-circle replication assay (template pre-incubated with the dCas9-cgRNA1-Atto647 roadblock), 20 nM Rep WT [3]: 65 kbp"
His6-Rep ΔC33 (from UniProt P09980 1-640) (domain or fragment),,"mean total DNA product length after 3 min in the single-molecule stalled rolling-circle replication assay (template pre-incubated with the dCas9-cgRNA1-Atto647 roadblock), 20 nM Rep ΔC33 [3]: 2 kbp"
Rep (from UniProt P09980),,Kd [4]: 90 nM
